{"source": "paper PMC8092224", "biological_target": "RBD-ferritin fusion protein (SARS-CoV-2 spike RBD-… linker-H. pylori-bullfrog ferritin) (SARS-CoV-2 Wuhan-Hu-1 strain | bullfrog (Rana catesbeiana) | Helicobacter pylori)", "assay": "SEC; concentrated supernatant (500-kDa MWCO TFF) on HiPrep 16/60 Sephacryl S-500 HR, degassed PBS, 0.4 ml/min; size from LMW/HMW calibration standards; self-assembly of the monomer into the nanoparticle", "data": [{"substance": "RBD-ferritin fusion protein (SARS-CoV-2 spike RBD-… linker-H. pylori-bullfrog ferritin)", "values": [{"measurement": "stoichiometry N", "value": 24}]}]}
